Experimental data reported in the supplement of paper PMC9170038.

System: MS2 coat protein
Assay: apparent KD of MS2 coat protein; designed switch direction (-1 OFF switch, 1 ON switch): -1; higher = weaker reporter binding
Method in brief: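 Designed RNA switches with common flanks were made on Illumina chips by stalled E. coli RNA polymerase. Titration with SNAP-549-labelled MS2 coat protein doubled from 0.7 or 1.5 nM up to 3 µM. Apparent KD is each design's median over clusters after curve-fitting normalised fluorescence.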

[1] = Eterna round: R95, input ligand: FMN 200 uM
[2] = Eterna round: R95, input ligand: microRNA oligo, concentration not stated
[3] = Eterna round: R95, input ligand: none
[4] = input ligand: microRNA oligo, concentration not stated

With “CCAUCGAGUGUGAGGAUAUGCUGUUCCUAAGAGCAGCAGAAGGCACAUGAGGAUCACCCAUGUGGAUACGGUGG [Mat - Exclusion 4 - JL Mod - D81] (puzzle: Brourd's mod of Exclusion 4)” the “apparent KD of MS2 coat protein” value [1] was 172 nM, the “apparent KD of MS2 coat protein” value [2] was 29.2 nM and the “apparent KD of MS2 coat protein” value [3] was 31.1 nM.
For “ACAUGAGGAUCACCCAUGUAAUCAUGAUGGCUGAUGUAGAGCUAGGAUAUGAGUGGCUUUCUAUCUCAGAAGGAGCAAGACUGG [Deportation 40 - Jieux - Exclusion NG 3] (Eterna round: R96, puzzle: Exclusion NG 3)”, the “apparent KD of MS2 coat protein” value (input ligand: FMN 200 uM) was 44.1 nM, the “apparent KD of MS2 coat protein” value [4] was 31.6 nM and the “apparent KD of MS2 coat protein” value (input ligand: none) was 36.8 nM.
With “ACAUGAGGAUCACCCAUGUGACCACAAUGGCUGAUGUAACAACAGGAUAUUCGUGAAUAUCUAACGAAGAAGGGUUAUGACUGG [Deportation 63 - Jieux - Exclusion NG 3] (Eterna round: R96, puzzle: Exclusion NG 3)” the “apparent KD of MS2 coat protein” value [4] was 51.4 nM.
For “AACCAGCGAGGAUAUGCUUGAGCUUGUUCUGGUUAUAAUCGACUUGAGGAUCACCCAAGUAGAAGGUGCUGGCG [EX2 #57] (Eterna round: R97, puzzle: Exclusion 2)”, the “apparent KD of MS2 coat protein” value (input ligand: FMN 200 uM) was 42.6 nM and the “apparent KD of MS2 coat protein” value (input ligand: none) was 20 nM.
In the case of “CUGGUCCGAGGAUAUAUUAAGUGAAACAUGAGGAUCACCCAUGUAAUUUAAUGGAUGUAAAUAGAAGGCGGACUAG [Mat - Exclusion 5 - JL mod - D39] (puzzle: Exclusion 5)”, the “apparent KD of MS2 coat protein” value [1] is reported as 38.9 nM, the “apparent KD of MS2 coat protein” value [2] is reported as 35.3 nM and the “apparent KD of MS2 coat protein” value [3] is reported as 36.4 nM.
For “ACGGUGGUCCGAGAACAUGAGGAUCACCCAUGUGACAAAACCAAGGAUAUAGACGGACCGCCCGACUAGAAGGUGGAAAGAAAA [Aronlema] (Eterna round: R96, puzzle: Exclusion NG 3)”, the “apparent KD of MS2 coat protein” value (input ligand: FMN 200 uM) was 90.2 nM, the “apparent KD of MS2 coat protein” value [4] was 41.1 nM and the “apparent KD of MS2 coat protein” value (input ligand: none) was 77.9 nM.
“CUUUUGUGAGGAUAUUGGUAGUAAAUAAAUAAAAUUACUACUGAGAAGGCACAUGAGGAUCACCCAUGUUCCUC [salish99_ex4_r3_070] (puzzle: Exclusion 4)” was tested, and the “apparent KD of MS2 coat protein” value [2] was 30.7 nM.
In the case of “GGUUGUUUUUUCCUUUCUUACAUGAGGAUCACCCAUGUUUCUUGUCGUGCUCGCGUUGCUCGUCUGUCUGUCUGUUG [salish99_TOv1_r3_074] (puzzle: Sensor v3, turn-off variant 1)”, the “apparent KD of MS2 coat protein” value [1] is reported as 49.9 nM, the “apparent KD of MS2 coat protein” value [2] is reported as 36.6 nM and the “apparent KD of MS2 coat protein” value [3] is reported as 55.6 nM.
For “AGUACUAUGCGAGCUGACUUGCGUAGUGCAGCAGGUGUUACAUGAGGAUCACCCAUGUCCUCAUUUGCUCGUCUUAU [Mat - Sensor v3 - Turn-off var 2 - D6] (puzzle: Sensor v3, turn-off variant 2)”, the “apparent KD of MS2 coat protein” value [1] was 271 nM, the “apparent KD of MS2 coat protein” value [2] was 193 nM and the “apparent KD of MS2 coat protein” value [3] was 247 nM.
With “ACCAUUACCACACCCUCUAUACAUGAGGAUCACCCAUGUUCUGAGGAUAUCAUCGCUCGCCGCGUUGAGAAGGCAGAGCAUUAA [Tiisri] (Eterna round: R96, puzzle: Exclusion NG 3)” the “apparent KD of MS2 coat protein” value (input ligand: FMN 200 uM) was 50.8 nM, the “apparent KD of MS2 coat protein” value [4] was 9.21 nM and the “apparent KD of MS2 coat protein” value (input ligand: none) was 15.1 nM.
In the case of “CGGAUGUUAGGAUAUUAGUAGUAGUCAGAAAAGACUAUUACUGAGAAGGAACAUGAGGAUCACCCAUGUUUCCG [Mat - Exclusion 4 - Eli Mod - D44] (Eterna round: R97, puzzle: Exclusion 4)”, the “apparent KD of MS2 coat protein” value (input ligand: FMN 200 uM) is reported as 17 nM and the “apparent KD of MS2 coat protein” value (input ligand: none) is reported as 15.4 nM.
“AGAGUACUGCGAGGAUAUACAUGAGGAUCACCCAUGUGGUGGUGUGAGGCAAAGCCUCACACCAUGUAGAAGGCGCAGUACUCA [Mat - Exclusion NG 2 - Mod of JL - D20] (Eterna round: R96, puzzle: Exclusion NG 2)” was tested, and the “apparent KD of MS2 coat protein” value (input ligand: FMN 200 uM) was 159 nM, the “apparent KD of MS2 coat protein” value [4] was 26.6 nM and the “apparent KD of MS2 coat protein” value (input ligand: none) was 42.3 nM.
